From US20230405119A1 (published 2023) come the findings set out here.

This experiment has as its target IL13ra2-Fc. As to the kind of experiment: yeast display flow cytometry titration. Background: A flow cytometer gives signals particle by particle.

Positions count from the first letter of the chain named.

B1: RLK (ligand)
chain: GPVPPSTALRRLIEELVNITQNQKAPLCNGSMVWSINLTAGMYCAALESLINVSGCSAIEKTQRMLSGFCPHKVSAGQFSSLHVRDTKILVAQFVKDLLLHLKKLFKEGRFN
In general, Kd refers to a measure of binding affinity in units of concentration. Higher therefore signals lower affinity. In turn, B1 had a Kd of 480 nM.

B2: YLK (ligand)
chain: B1 chain with R11Y
In turn, B2 registered a Kd of 200 nM.
